Data as given in the domain aggregation screens of Martell et al. (2025).

Assay: soluble fraction after stress (log2 fold change); higher = more stays soluble; pooled small domains, quantitative proteomics
Conditions: stress: 75 degC
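Note: 20 min heating vs room temperature control held 20 min.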

Row | Sequence | soluble fraction (log2)
1 | HMPEPMKLSDLPPELWQRVSDLFDEVIDLPETDRIPYIRNLWGSEPLVAKELMALLVAAANVD | -0.452
2 | HMQEPVHFTRRERQVLSLILSGQATAEIAKTLGIANATVTTYKKSLYSKSGTNSLSRLLIWAMVRR | -0.463
3 | HMNTGIPHQEVIKKLYSFAEGGDWKGLKEELNRIKEYTLFYNSVKELADSFEINRLIEKLKTYIF | -0.127
4 | HMLPKILVMDGKVNKNALTTLGKDEEWVKKVLRNHNIHSIKDVLLALYDTKGKFQYQLYDDYEK | -0.248
5 | HMDLDIRDDIYRANIPNDYKLQQMQNNIDYDKVLTGYYNNRPEANVIANRTLQLANDVYNRD | 0.00307
6 | HMLSVTLTVLPQQAGERLDAFAAAESTLSRSAAAKLIEDGQITVNGARAAKNYRLRAGDVIEIDEPEPI | -0.0471
7 | HMQDVWEPFLAKGYVFADGMLTKLIHKRGDVYKTQEIGSDKIIYVIKDGDTFAHGKTVKAAMLDLAFKKS | -1.5
8 | HMREGIQLGDPVRVIRDPLFGKIGAVSGLPSELRAIPTESEVRVLEVRFPDGTTTVVPRANIEVIEG | 0.487
9 | HMDYEVPEELQQKFEEFPRLKEAFYQLTPGRQHQYLYYFSQAKRSQTRYNRIDKYMNAILQGKGMK | -1.67
10 | HMSTESAHLGERMLNQALRAMHIEPDQITEAHWQKLIRDYGLKKKSEILTDIGLGKRQNVMVAHQLLAMG | -0.539
11 | HMKTATAKIKATPFGWLRVRETPSLNGAEIARVNSGESYKILERGEGWIKIKVSDTVEGWVSEAYVELS | -0.244
12 | HMGEGIRIDSTAVVQVGEKMYAYLGGDGFSKEFWTNLPASGELAVTLKFEPIPMDAESLDFYEMPA | 0.307
13 | HMQNREQNILDGKSILDKELKRVGLLNQSAAIMAQEMKFNSQDDLFAALGSGATRIGQIINHLQKQS | -0.00272
14 | HMSDEIQLQFIQISIFKDHPWADMQIKDMNIIPDLLIVMILRDGERIIPNGNTRIMPGDMVIITAMSANT | -2.54
15 | HMLTTMSSQWKPSLDAIEILEKSGIAYSFIEDAIPEFVLYWRERGISHGAWNTKFVEHIRKQWAKFEAS | -1.73
16 | HMNPHGVAIIDVRKGKASTLRSLATSVRSLGEWDQLKIPIFNLESLTSLVLWHGLDAIVKEPESLQSNLIL | -0.513
17 | HMATRLPFGFAKRFGVLVEGKDDQITVYHKDGLQTAVILEIQRYLARPFRFEAVTPEEFERRLGLAYQS | -2.44
18 | HMLRKTTDLDAIRSVAKDVIDQNPKAVEDYVGGKESAIGFLLGQVMRATKGTADANTVRELLKEILDS | 1.01
19 | HMNTPHLTPREREVLKGIVDGLINKEIAARMGVSVATVITHRNNLTEKLGTRSVSALTIFAVMHGIVR | -2.55
20 | HMTPPAQQPHEGLPTDETATDAKTLVQKSRWWLEEEQRQREAGNTAYAERIRLALIQLLYRAERA | -0.713
21 | HMRRATLERLANNTAEKAIRYKRSLALEPMNPQERRIIHAALQEVEGVSTHSVGTEPNRKVIVVPDGV | -0.329
22 | HMKETIIPELLQNELDKNSELNDKFNTFSPYKQREFIEYIITAKQEKTQISRLQKVILMILEGRGLNN | -1.89
23 | HMLPEGIENGDVLTRTDALDYRKWLVTGNQKRIFASTASFYGENFNYSEVKAVSDRVLDAIPDGEPV | -0.0413
24 | HMFKEVPVPDVKGMTLEEAKLALEKEGFILGKTEEAESTEVAAGKIISQNLEAGKIAKQGTSVNLVVSKGK | 0.454
25 | HMIPENKRVLISLTYIYGIGKKISQDILEKANIDSSIKTSQLTDDDVARIRQLIENDYLVEGELRV | 0.0291
26 | HMSSDEDELESIIKRVFADNPIELERLQNGEDKLIKFFMGLVMRQTKGKYPPKIIIDLLNKS | -0.599

Row | Sequence | soluble fraction (log2)
27 | HMLKETGVITASVLNVREDIGTSSNIVAQLKKGMEVNILESRAIAGSETWYRIDAGSIKGWIFGDYI | -3.37
28 | HMSNVKVYPNPTSGKLTIDAENYKGVEVYDTSGRLIVKSELRTIDLEEQSKGLYLLKVNANGTTQEFKVFK | -0.0433
29 | HMKKDLATYAYEHIKQMVIDRELMPGERIQQEVLARELGISRTPLVTALNRLASENLVELEANKGFSVRRF | -0.451
30 | HMKEIYIDRGKEALEKELRKRKIPFQEFLSKENTNLLFDTLKIPSHDLEELYLEIGNGKHAASTVVNTVY | 0.391
31 | HMTNQEFNAAFKPFLDYFPTTEMTKEKINIYYLALSDLSKEQLGSAFISMVKNRVYKNFPQVAEIRQYATN | -0.803
32 | HMAGRKMMVMANNLSVRKSANSLSEKLADLSRGDTVEYISSTNGWNKVRYKGQIGYVSSYYLKDTGEEVE | -0.562
33 | HMTYTGTVTGVDEGGLRVRSSTSTENTSNVITKVYTGDTFDVLDTVYNGSAKWYKIGFTYNGTYTYGYVSA | -1.51
34 | HMINLNEVLANFQKSYPNLAGFKYDQGMDALVYEGNYIRLNGYMLSRINPTLFSMSPDDIFTYLKNGF | -3.17
35 | HMVPQAVQDIKAYLASGALPYIGPATAKKIVAMFGSDALDVIAEHPEQLTAIRGLNEEKANAIHQEFRRQF | -0.259
36 | HMHRGTPASIIAAAKQYLTGGQTVELYEREGGPWTFRLRTYLSETPYPEKVRASVEALKPAGVVFLYELQS | -0.019
37 | HMKIDELKAYLFQSVRVKNPHTQEYDTLKIIELNYYQDKIKAKLKNSDDDYITEMIFESIKHLQNFLG | -2.81
38 | HMIETIQVPRAFNDWHEQADKTKSVFEVYAEIEASENEKLIAWVRNNQNEFAKIWLGALIPELE | -1.7
39 | HMDLYIILGLERSATLSDVRRAYRRLARKYHPGINPGDRNSASVFTRVSEAYQVLSDPEQRRRYDSR | -2.84
40 | HMDISKTLGKNPLLIIDNIEYRGKTLDEITAMTGVKRFENIDIYGSEEAMKTYGEKAKDGVIIAYTT | 0.0575
41 | HMQVSDEGPIKAILQEVLDKSPTQLADYASGKVKLRQYFFGEAMKALKGKANPQVINKLLDEMLPPVAA | -0.0324
42 | HMKAGRNTLARQMAILEVLQKDGRALVDDLAARFETTPQTIRKDLSALAEVNQISRFHGGAALVG | -0.159
43 | HMRKIGDVLRLHAGGLSKRRIAVSLNIGRTAVGDYISRARRAGLGWPLPEDLSEEALERLLFPPP | -3.08
44 | HMEDPVAQEARAAFEVGRLLAAATGPVTLAAIRRAIDLPEERLEEILRRLEESGAVRRARDGWLPG | -0.0316
45 | HMQKDYKTRLQEYYAKVGKKVNYMDSSTGPDHDKKFQTQVFLDKEIIGVGEGKSKKSSQQEAAKQALEKI | 0.267
46 | HMVVKLTQEQDRFIKTFNDKSLAFYYISSWGWGSFLRNGIGGVYEGDKTPFTLDEKEKMLNAIINGYEVI | -2.02
47 | HMSMVGSVNKQGRPFALLRVDNLLYQVKVGDYLGQNYGRITQIDETQIALREIVQDAAGEWIERPGVLQL | 0.294
48 | HMEKILSYKALMNDAGKRIDQFLANNEKDISRTRIKSLILEGSLKLDNNIINDPSYKIKENDVFTLFIPEA | -0.482
49 | HMGVSLREVPVAEHGDWIGRPIKELGIPAEVLIVLVRRADGTTVVPKGGTVLQQGDMLVVNEWEE | -1.16
50 | HMKQISNTDELETMVKKIIDDNEEQVNKYRGGNEKLFGWFVGQAMKNTGGTANPKVVNEILSKLLK | -0.0646
51 | HMSSYTQEDVRSGILYMAQLKPRNIEEFVSTLAFSKDDIMDNLSFLVDEGFLKFDADTDTYFNPVPL | -0.374
52 | HMPHILEITSSKILDELQDEKKMVYFHFEKQSNQYVYRLIFNSKNELMEFKKSLEKNSSILDVRADM | -1.81

Row | Sequence | soluble fraction (log2)
53 | HMKYVDYYATLGVARDADLATITKAYRKLARQTHPDLNQGADNEARFKAAAEAYATLKHPEKRAAYDELGQ | 0.0183
54 | HMDLGTHMRLIVPTGMRVDHIVYESNGKNISVDHDRSISVRWNGEVVSIDVSPLPSRPDFDVLIYMSPK | -0.134
55 | HMKPTVKKLLAALPELRSGQPLHLSVATRKLRDAGLLGKNASSPTLFRNYVAQFELIPENQPNAVRYR | -0.786
56 | HMTEEYAVLWRVARQTLKPEAFDVLWMKYREQLSIAEIAGIMNRSETSVKVMLHRARKNLGTALESS | -1.75
57 | HMTRLDLQNAFRVLPPEIQPAAVLFFLQERKQREIAKILGIGLPLVKYRIRKARELLAQFLRKEA | -0.225
58 | HMTSPLQIHPNPATKHIELGLESPEVVLIKDINGKTVYQELVAPNQYIDIEHLKNGIYFIESKNKFGKLIK | 0.0829
59 | HMNTPTLLLYGGKDHSVPEAGIRHLRAHLSANDRGEYRFYPNAPHLLLQSRQWQQVSQDISQWLAMT | 0.037
60 | HMKNLTERQQQIIALISGNPLITRAEIASAIGFSVKTIERELSILSEIVSYVGSKKGGHWEIQT | -2.66
61 | HMEAEDLRDWVGARGIAYTALRPAGIAVVNGRRVDVVSEGAFVNRDDPVEVVRVEGRRIVVKP | -0.0876
62 | HMSVKLMEVKGASTVVSRQVREAVSIVFPTSSMRLDLVALKARIEGVDAVKRADVYLRNGILEIQIDER | -2.11
63 | HMIDSVFASYRQVALDDELWDKVRNGAVLPKVELFEVMDGPVLFTYQSKIVAMYEPHPTKAGYIKPRKMFL | -2.09
64 | HMTETSKLTDAKQLLESILSSGEVSYKDIISAAEEYEIGKRTLMSAKALLSIESIKKTDGWYWTLPH | -0.368
65 | HMEYKKKIGELLIDGNKKLKAANIDTYILDTQLLLGKVLGKDKLYLITNKDEEVSNFKEREFYSLIEKRI | 0.0872
66 | HMLSVRERMSAILVSLEGERYADFTGLFDPTEGKGGVTVTFLAILELLKESMIDVVQNELYGPIHVRAA | -1.07
67 | HMGSEGVKVEDTIGMSEAEATATLGKSGFVVNKTESHDPYIKAGNVITQSPAAGSKAPKGTTVTLTISLGP | 0.404
68 | HMGGHLAYGFSRRFGLLIDEQQGEPVIIARPDYSPVHYAEARRIVGQPAALRVVDEQAFNQLLQSQQESGA | -0.512
69 | HMKLTNNDFIRLKTFMYNNYGINLENKKTLIETRLAIVVKRLGFNDFKSYIDNLMRDKTGEQASIIVGKLT | -2.83
70 | HMKRLPAQMGGGDGVLRVPGLNNFVYVTIADKTLPAFNNRVPPKKGLRIWVGYSPEEPNLFQVLSTRTD | -1.83
71 | HMEIYEEDRTKVVNDLMDQILNRQITMDAAATKFINIRNSLGTTITKEDEQNLEMLRGLIFDKT | 0.2
72 | HMPKLVGEVMQTLDALRREKGLSLLLVEQNARAALGVVDRVYVLERGRVVFEGSAKEAMEDQDVMEFYLG | 0.0465
73 | HMVSLSENQKIVLESLNTAMSARELMEILNLSDISHFRRNILNPLLLEGLIVRTKPDKPKSSKQKYIKANF | -1.69
74 | HMSFNTNENKNLLWELMNKHNLFKDIDNQHYQEVQKLFEEEIVFISNNNKSLDLVEQNKKFLSSIITKLNK | -1.84
75 | HMGLNNVSDILRLDFNSFKKKFDKLPSGYKNSVVEQAALMIKSGELDSIKIKDYIEKSMGIELDI | -0.511
76 | HMSKPIREVAYETLKNAIVTGEIPAGSRIVETEYAERMHISRTPLREALRKLERDGLVEYVVRRGVVVRAF | -1.63
